Results published in doi:10.1101/2022.10.05.511050 (bioRxiv, 2022).
Where “and” joins values, the source holds several entries; their conditions need not be identical. Equal values may be shown once.

Target: HA-tagged NLRC4 (UniProt Q3UP24 1-1024)
Assay: co-IP

Sequence of HA-tagged NLRC4 (Q3UP24 whole entry): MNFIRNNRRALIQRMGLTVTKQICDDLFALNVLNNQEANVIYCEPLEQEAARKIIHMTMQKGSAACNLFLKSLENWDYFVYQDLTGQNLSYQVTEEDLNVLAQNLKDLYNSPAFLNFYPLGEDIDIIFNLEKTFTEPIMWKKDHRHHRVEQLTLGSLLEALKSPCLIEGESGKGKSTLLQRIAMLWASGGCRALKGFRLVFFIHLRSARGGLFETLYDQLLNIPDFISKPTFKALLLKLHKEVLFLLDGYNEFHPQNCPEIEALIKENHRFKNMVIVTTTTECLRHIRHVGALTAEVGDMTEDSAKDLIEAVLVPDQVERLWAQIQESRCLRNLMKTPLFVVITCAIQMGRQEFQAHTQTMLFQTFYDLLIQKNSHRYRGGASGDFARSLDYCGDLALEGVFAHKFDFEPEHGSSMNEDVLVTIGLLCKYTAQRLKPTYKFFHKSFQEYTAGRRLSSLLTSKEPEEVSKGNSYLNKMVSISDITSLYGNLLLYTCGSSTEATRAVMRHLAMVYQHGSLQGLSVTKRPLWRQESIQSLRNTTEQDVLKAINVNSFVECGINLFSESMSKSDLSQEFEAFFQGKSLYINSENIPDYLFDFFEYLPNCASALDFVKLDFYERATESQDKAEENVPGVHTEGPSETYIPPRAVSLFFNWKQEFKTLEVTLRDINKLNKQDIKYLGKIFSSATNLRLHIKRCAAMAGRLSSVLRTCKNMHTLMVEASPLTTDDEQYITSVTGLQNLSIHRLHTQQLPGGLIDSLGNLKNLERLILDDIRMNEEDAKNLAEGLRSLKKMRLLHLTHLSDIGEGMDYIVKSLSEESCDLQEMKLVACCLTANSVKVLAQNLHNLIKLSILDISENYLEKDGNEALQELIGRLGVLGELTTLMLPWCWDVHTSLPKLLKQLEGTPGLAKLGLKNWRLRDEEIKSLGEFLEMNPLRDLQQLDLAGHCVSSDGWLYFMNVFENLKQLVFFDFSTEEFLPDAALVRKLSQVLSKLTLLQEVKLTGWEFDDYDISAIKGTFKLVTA

B1: HA-tagged PELO (natural protein)
chain: MKLVRKDIEKDNAGQVTLVPEEPEDMWHTFNLVQVGDSLRASTIRKVQTESSTGSVGSNRVRTTLTLCVEAIDFDSQACQLRVKGTNIQENEYVKMGAYHTIELEPNRQFTLAKKQWDSVVLERIEQACDPAWSADVAAVVMQEGLAHVCLVTPSMTLTRAKVEVNIPRKRKGNCSQHDRALERFYEQVVQAIQRHINFEVVKCVLVASPGFVREQFCDYMFQQAVKTDNKVLLENRSKFLQVHASSGHKYSLKEALCDPTVASRLSDTKAAGEVKALDDFYKMLQHEPDRAFYGLKQVERANEALAIDTLLISDELFRHQDVATRSRYVRLVDSVKENAGTVRIFSSLHVSGEQLGQLTGVAAILRFPVPELSDQEDDSSSEED
- stoichiometry N: < 0.05 PELO per NLRC4 and ~0.05 PELO per NLRC4
